This is an account of results in patent US20230138315A1 (JIANGSU HENGRUI MEDICINE, published 2023).

Test in all cases: SPR (Biacore T200); antibody captured on Protein A chip, antigen in flow; 1:1 Langmuir fit
In one assay the target is T1, rat ANGPTL3(17-455)-His (rat, biotin-labelled in the ELISA and HTRF assays (sites not given)).
T1 construct: also called full-length rat ANGPTL3
T1 chain: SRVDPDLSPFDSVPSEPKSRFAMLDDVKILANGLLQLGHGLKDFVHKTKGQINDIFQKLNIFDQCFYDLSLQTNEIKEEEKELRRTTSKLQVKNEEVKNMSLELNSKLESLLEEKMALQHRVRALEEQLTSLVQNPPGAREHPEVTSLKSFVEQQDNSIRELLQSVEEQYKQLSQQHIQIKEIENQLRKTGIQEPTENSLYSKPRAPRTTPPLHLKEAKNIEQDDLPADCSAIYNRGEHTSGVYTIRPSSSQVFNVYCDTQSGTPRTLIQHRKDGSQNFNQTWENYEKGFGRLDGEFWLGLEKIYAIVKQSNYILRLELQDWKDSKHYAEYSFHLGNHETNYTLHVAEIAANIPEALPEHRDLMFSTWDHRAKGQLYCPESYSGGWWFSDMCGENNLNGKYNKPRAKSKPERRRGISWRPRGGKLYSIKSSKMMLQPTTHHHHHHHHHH
The source says: (§1) Biacore was used to determine the affinity of the test anti-ANGPTL3 antibodies for human, monkey, rat and mouse ANGPTL3, and the method is as follows:
(§2) Reaction signals were detected in real time using a Biacore T200 instrument to obtain association and dissociation curves. After each cycle of dissociation was completed, the biochip was washed and regenerated using a glycine-hydrochloric acid regeneration solution (Cat. # BR-1003-54, GE, pH 1.5). The running buffer for the experiment was 1×HBS-EP buffer (Cat. # BR-1001-88, GE). The data obtained from the experiment were fitted with the (1:1) Langmuir model using GE Biacore T200 evaluation software (version 3.0) to obtain affinity values.

Assay [1] has as its target T2, human-ANGPTL3 (R&D, 3829-AN) (human, UniProt Q9Y5C1 17-460).
T2 construct: Bought antigen used in the Biacore assay
T2 sequence (looked up): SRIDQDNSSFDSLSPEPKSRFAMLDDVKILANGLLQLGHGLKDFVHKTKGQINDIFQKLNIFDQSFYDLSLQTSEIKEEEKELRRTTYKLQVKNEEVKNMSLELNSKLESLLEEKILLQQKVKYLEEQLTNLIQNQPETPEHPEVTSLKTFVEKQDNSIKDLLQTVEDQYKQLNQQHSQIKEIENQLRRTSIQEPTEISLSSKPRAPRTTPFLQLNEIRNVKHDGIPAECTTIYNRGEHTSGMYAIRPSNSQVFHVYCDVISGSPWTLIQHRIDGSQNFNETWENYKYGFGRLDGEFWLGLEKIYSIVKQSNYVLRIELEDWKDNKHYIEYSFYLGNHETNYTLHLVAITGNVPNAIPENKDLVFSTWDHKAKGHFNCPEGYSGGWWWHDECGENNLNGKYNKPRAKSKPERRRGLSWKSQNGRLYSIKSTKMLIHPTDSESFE
Text: as §1, §2

In assay [2] the target is T3, mouse ANGPTL3(17-455)-His (mouse, UniProt Q9R182 17-455, biotin-labelled in the ELISA and HTRF assays (sites not given)).
T3 construct: also called full-length mouse ANGPTL3
T3 sequence: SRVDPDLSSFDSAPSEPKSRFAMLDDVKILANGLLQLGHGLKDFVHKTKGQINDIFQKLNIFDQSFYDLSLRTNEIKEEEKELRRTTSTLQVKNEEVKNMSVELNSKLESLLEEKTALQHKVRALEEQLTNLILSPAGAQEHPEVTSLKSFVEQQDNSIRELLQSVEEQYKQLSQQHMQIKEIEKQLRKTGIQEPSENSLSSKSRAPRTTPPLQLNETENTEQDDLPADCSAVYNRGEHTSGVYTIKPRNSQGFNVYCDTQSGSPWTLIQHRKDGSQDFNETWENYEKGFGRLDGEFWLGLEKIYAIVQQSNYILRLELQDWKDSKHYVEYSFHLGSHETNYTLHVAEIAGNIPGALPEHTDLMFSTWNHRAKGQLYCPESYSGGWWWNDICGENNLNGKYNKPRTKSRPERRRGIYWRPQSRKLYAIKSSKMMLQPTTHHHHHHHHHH
Text: as §1, §2

In assay [3] the target is T4, cynomolgus monkey ANGPTL3(17-460)-His (cynomolgus monkey, UniProt Q9Y5C1 17-460 (human entry), biotin-labelled in the ELISA and HTRF assays (sites not given)).
T4 construct: also called full-length cynomolgus monkey ANGPTL3; Cyno ANGPTL3
T4 chain: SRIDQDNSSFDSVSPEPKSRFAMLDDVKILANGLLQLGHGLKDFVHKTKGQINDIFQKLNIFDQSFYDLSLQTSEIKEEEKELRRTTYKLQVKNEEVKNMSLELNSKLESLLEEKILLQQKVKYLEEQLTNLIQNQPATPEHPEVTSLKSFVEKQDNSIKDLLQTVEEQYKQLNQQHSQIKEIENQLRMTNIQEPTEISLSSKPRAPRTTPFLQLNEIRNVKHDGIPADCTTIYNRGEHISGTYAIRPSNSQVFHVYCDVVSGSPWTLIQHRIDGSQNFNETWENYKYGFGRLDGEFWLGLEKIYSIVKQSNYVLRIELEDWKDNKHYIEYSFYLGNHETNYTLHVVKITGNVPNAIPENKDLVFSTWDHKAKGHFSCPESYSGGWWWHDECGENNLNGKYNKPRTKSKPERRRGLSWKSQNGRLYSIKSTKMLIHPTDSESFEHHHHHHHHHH
Text: as §1, §2

B1: P8G (antibody, human IgG4 S228P, kappa, V domains shown)
VH: QVQLVQSGAEVKKPGASVKVSCKASGYTFTSYDINWVRQAPGQGLEWVGLINPRDDSTSYAQKFQGRVTMTRDTSTSTMYMELSSLRSEDTAVYFCARDLGSIREVLYYGMDVWGQGTTVTVSS
VL: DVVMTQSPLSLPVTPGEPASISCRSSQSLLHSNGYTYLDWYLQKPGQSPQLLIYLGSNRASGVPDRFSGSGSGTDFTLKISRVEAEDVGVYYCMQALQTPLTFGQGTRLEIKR
notes: also called anti-ANGPTL3 antibody P8G; P8 (variable regions)
On to B1, for which the Kd in the assay with rat ANGPTL3(17-455)-His came to 250 pM; in assay [1], 151 pM; in assay [2], 355 pM; in assay [3] it was 59.3 pM. The koff stood at 0.000335 s⁻¹ in the assay with rat ANGPTL3(17-455)-His, 0.000333 s⁻¹ in assay [1], 0.000345 s⁻¹ in assay [2] and 0.000497 s⁻¹ in assay [3]. Moreover, the kon with rat ANGPTL3(17-455)-His turned out to be 1.34e+06 M⁻¹ s⁻¹; in assay [1] it was 2.2e+06 M⁻¹ s⁻¹; in assay [2], 970000 M⁻¹ s⁻¹; in assay [3] it was 8.37e+06 M⁻¹ s⁻¹.

B2: P8BG (antibody, human IgG4 S228P, kappa, V domains shown)
VH: QVQLVQSGAEVKKPGASVKVSCKASGYTFTSYDINWVRQAPGQGLEWVGLINPREDSTSYAQKFQGRVTMTRDTSTSTMYMELSSLRSEDTAVYFCARDLGSIREVLYYGMDVWGQGTTVTVSS
VL: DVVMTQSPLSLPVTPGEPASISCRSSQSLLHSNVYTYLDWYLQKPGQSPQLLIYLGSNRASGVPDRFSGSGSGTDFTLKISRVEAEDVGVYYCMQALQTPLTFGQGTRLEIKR
notes: also called anti-ANGPTL3 antibody P8BG; P8B (variable regions)
Turning to B2, the Kd with rat ANGPTL3(17-455)-His amounted to 257 pM; in assay [1] it was 45 pM; in assay [2] it was 288 pM; in assay [3] it was 76.9 pM. Moreover, the koff with rat ANGPTL3(17-455)-His was 0.000311 s⁻¹; in assay [1], 0.000276 s⁻¹; in assay [2], 0.00042 s⁻¹; in assay [3] it was 0.000398 s⁻¹. The kon in the assay with rat ANGPTL3(17-455)-His worked out at 1.21e+06 M⁻¹ s⁻¹; in assay [1], 6.14e+06 M⁻¹ s⁻¹; in assay [2], 1.46e+06 M⁻¹ s⁻¹; in assay [3], 5.18e+06 M⁻¹ s⁻¹.

B3: P3G (antibody, human IgG4 S228P, kappa, V domains shown)
VH: QVQLVQSGAEVKKPGASVKVSCKSSGYTFTDYYLHWLRQAPGQGPEWMGWISPNSGGTSYAQKFQGRVTMTRDTSISTAYMELSSLRSDDTAVYYCARDIATLGNFFTYGMDVWGQGTTVTVSS
VL: DIQLTQSPSSLSASVGDRVTITCRASQGIRNDLGWYQQKPGKAPKLLIYAASSLQSGVPSRFSGSGSGTDFTLTISSLQPEDFATYYCQQSYSSWTFGQGTKVEIKR
notes: also called anti-ANGPTL3 antibody P3G; P3 (variable regions)
Regarding B3, the Kd with rat ANGPTL3(17-455)-His came to 639 pM; in assay [1], 285 pM; in assay [2], 843 pM; in assay [3], 204 pM. Besides, the koff in the assay with rat ANGPTL3(17-455)-His turned out to be 0.00082 s⁻¹; in assay [1], 0.000731 s⁻¹; in assay [2], 0.000827 s⁻¹; in assay [3] it was 0.000847 s⁻¹. Besides, the kon came to 1.28e+06 M⁻¹ s⁻¹ with rat ANGPTL3(17-455)-His, 2.56e+06 M⁻¹ s⁻¹ in assay [1], 981000 M⁻¹ s⁻¹ in assay [2] and 4.15e+06 M⁻¹ s⁻¹ in assay [3].
